Assay results from publication PMC10882061.

Target: Env-K, stabilized HIV Env trimer of BG505 NFL2P gp140 with a C-terminal Peptide K (HIV-1 (BG505))
Assay: SEC; Sephacryl S-300 after lectin affinity; peaks of aggregates, trimers and monomers; pooled trimer fractions also run on BN-PAGE

Env-K, stabilized HIV Env trimer of BG505 NFL2P gp140 with a C-terminal Peptide K
stoichiometry N: 3
